The source of these data is paper PMC6151396, “Production of Single-Chain Fv Antibodies Specific for GA-Pyridine, an Advanced Glycation End-Product (AGE), with Reduced Inter-Domain Motion” (Molecules : A Journal of Synthetic Chemistry and Natural …, 2017).

The target in test [1] is T1, glycolaldehyde (GA)-modified bovine serum albumin (Bos taurus, UniProt P02769, modified by glycolaldehyde (GA-pyridine forms on the ε-amino group of Lys residues); sites not given).
T1 construct: bovine serum albumin; The scFvs are directed against GA-pyridine, a modified lysine; also called GA-BSA; source: BSA (25 mg/mL) incubated with 50 mM glycolaldehyde at 37 °C for 12 h, dialysed with PBS
T1 sequence (P02769 25-607): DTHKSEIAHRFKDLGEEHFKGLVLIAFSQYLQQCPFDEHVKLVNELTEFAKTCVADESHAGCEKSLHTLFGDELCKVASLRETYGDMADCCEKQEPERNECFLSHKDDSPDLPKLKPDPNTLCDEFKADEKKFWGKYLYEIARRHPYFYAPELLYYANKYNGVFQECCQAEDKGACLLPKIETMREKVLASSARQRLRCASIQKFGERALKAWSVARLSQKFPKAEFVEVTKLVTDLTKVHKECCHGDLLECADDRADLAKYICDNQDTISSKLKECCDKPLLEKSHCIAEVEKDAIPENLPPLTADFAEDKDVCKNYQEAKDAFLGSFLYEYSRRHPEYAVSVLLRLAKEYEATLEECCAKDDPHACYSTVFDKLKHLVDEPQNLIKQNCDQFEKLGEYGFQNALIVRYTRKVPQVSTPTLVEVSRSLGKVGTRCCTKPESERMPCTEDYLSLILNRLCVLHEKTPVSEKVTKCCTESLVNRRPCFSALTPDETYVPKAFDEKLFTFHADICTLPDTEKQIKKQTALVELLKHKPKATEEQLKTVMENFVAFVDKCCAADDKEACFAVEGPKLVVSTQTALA
The experiment in a line: ELISA; phage ELISA: GA-BSA coated on a 96-well plate, scFv display phage clones added for 1 h at 25 °C, detected with HRP-conjugated anti-M13 antibody. The conditions noted are these: one partner purified. In general terms: ELISA stands for enzyme-linked immunosorbent assay.

Test [2] has as its target T1, glycolaldehyde (GA)-modified bovine …. The test can be described thus: ELISA; competitive ELISA of purified AGE73scFv with AGE-modified BSAs as competitors; coated antigen and conditions not told in the text shown (Figure S2). The conditions noted are these: both partners purified.
The target of test [3] is T2, glucose-derived AGE-modified BSA (Bos taurus, UniProt P02769, glucose-derived AGE modification; sites not given).
T2 construct: bovine serum albumin; also called Glc-BSA
T2 sequence (P02769 25-607): as above
The description is as above. The conditions noted are these: both partners purified.

Test [4] concerns the target T3, glyceraldehyde-modified BSA (Bos taurus, UniProt P02769, modified by glyceraldehyde; sites not given).
T3 construct: bovine serum albumin; also called GCA-BSA
The test is described as above. The conditions noted are these: both partners purified.

T3 sequence (P02769 25-607): as above

B1: AGE73scFv displayed on phage (scFv, V domains shown)
VH: QVKLQQSGPSLVKPSQTLSLTCSVTGDSITSGYWNWIRKFPGNKFEYLGYISYSGRTYYNPSLKSRISITRDTSKNQYYLQLNSVTTEDTATYYCSRPYYRYDYAIDYWGQGTTVTVSS
VL: DIELTQSPAIMSASLGERVTMTCTASSSVSSSYLHWYQQKPGSSPKLWIYSTSNLASGVPARFSSSGSGTSYSLTISRMEAEDAATYYCQQSRKVPYTFGGGTKLEIK
notes: VH of AGE73scFv; as the VH of m1; (Gly-Gly-Gly-Gly-Ser)3 linker; VL of AGE73scFv; as the VL of m1
Regarding B1, the binding result in test [1] was “binds”.

B2: AGE73scFv (scFv, V domains shown)
VH: QVKLQQSGPSLVKPSQTLSLTCSVTGDSITSGYWNWIRKFPGNKFEYLGYISYSGRTYYNPSLKSRISITRDTSKNQYYLQLNSVTTEDTATYYCSRPYYRYDYAIDYWGQGTTVTVSS
VL: DIELTQSPAIMSASLGERVTMTCTASSSVSSSYLHWYQQKPGSSPKLWIYSTSNLASGVPARFSSSGSGTSYSLTISRMEAEDAATYYCQQSRKVPYTFGGGTKLEIK
notes: VH of AGE73scFv, from the GA-KLH immunised mouse antibody library; (Gly-Gly-Gly-Gly-Ser)3 linker; VL of AGE73scFv, from the GA-KLH immunised mouse antibody library; the FLAG-tag lies on the N-terminal side of the hexahistidine-tag, so both are probably C-terminal of the scFv; also called anti-GA-pyridine scFv
Regarding B2, the binding result in test [2], in test [3] and in test [4] was “binds” each time.

B3: 73MuL-V94A displayed on phage (scFv, V domains shown)
VH: QVKLQQSGPSLVKPSQTLSLTCSVTGDSITSGYWNWIRKFPGNKFEYLGYISYSGRTYYNPSLKSRISITRDTSKNQYYLQLNSVTTEDTATYYCSRPYYRYDYAIDYWGQGTTVTVSS
VL: DIELTQSPAIMSASLGERVTMTCTASSSVSSSYLHWYQQKPGSSPKLWIYSTSNLASGVPARFSSSGSGTSYSLTISRMEAEDAATYYCQQSRKAPYTFGGGTKLEIK
notes: as the VH of m1 (AGE73scFv); (Gly-Gly-Gly-Gly-Ser)3 linker; as the VL of m1 (AGE73scFv) with V94A; probably Kabat; source: second library, error-prone PCR of the VL of AGE73scFv
With B3, the binding result in test [1] was “binds”.

B4: 73MuL-S30P displayed on phage (scFv, V domains shown)
VH: QVKLQQSGPSLVKPSQTLSLTCSVTGDSITSGYWNWIRKFPGNKFEYLGYISYSGRTYYNPSLKSRISITRDTSKNQYYLQLNSVTTEDTATYYCSRPYYRYDYAIDYWGQGTTVTVSS
VL: DIELTQSPAIMSASLGERVTMTCTASSSVSPSYLHWYQQKPGSSPKLWIYSTSNLASGVPARFSSSGSGTSYSLTISRMEAEDAATYYCQQSRKVPYTFGGGTKLEIK
notes: as the VH of m1 (AGE73scFv); (Gly-Gly-Gly-Gly-Ser)3 linker; as the VL of m1 (AGE73scFv); source: second library, error-prone PCR of the VL of AGE73scFv
Turning to B4, the binding result in test [1] is “binds”.

B5: AGE112scFv displayed on phage (scFv, V domains shown)
VH: QVKLQESGPSLVKPSQTLSLTCSVTGDSITSGYWNWIRKFPGNKFEYLGYISYSGRTYYNPSLKSRISITRDTSKNQYYLQLNSVTTEDTATYYCSRPYYRYDYAIDYWGQGTTVTVSS
VL: DIELTQSPTTMAASPGEKITITCSASSSISSNYLHWYQQKPGFSPKLLIYSTSNLASGVPARFSGSGSGTSYSLTISSMEAEDAATYYCQQWSSNPYTFGGGTKLEIK
notes: VH of AGE112scFv; (Gly-Gly-Gly-Gly-Ser)3 linker; VL of AGE112scFv
For the molecule B5, in test [1], the binding result is “binds”.

B6: 73MuL-S56P displayed on phage (scFv, V domains shown)
VH: QVKLQQSGPSLVKPSQTLSLTCSVTGDSITSGYWNWIRKFPGNKFEYLGYISYSGRTYYNPSLKSRISITRDTSKNQYYLQLNSVTTEDTATYYCSRPYYRYDYAIDYWGQGTTVTVSS
VL: DIELTQSPAIMSASLGERVTMTCTASSSVSSSYLHWYQQKPGSSPKLWIYSTSNLAPGVPARFSSSGSGTSYSLTISRMEAEDAATYYCQQSRKVPYTFGGGTKLEIK
notes: as the VH of m1 (AGE73scFv); (Gly-Gly-Gly-Gly-Ser)3 linker; as the VL of m1 (AGE73scFv); probably Kabat; source: second library, error-prone PCR of the VL of AGE73scFv
In the case of B6, in test [1], the binding result is listed as “binds”.

B7: AGE78scFv displayed on phage (scFv, V domains shown)
VH: QVKLQESGPSLVKPSQTLSLTCSVTGDSITSGYWNWIRKFPGNKFEYLGYISYSGRTYYNPSLKSRISITRDTSKNQYYLHLNSVTTEDTATYYCTRPYHRYDYAIDFWGQGTTVTVSS
VL: DIELTQSPAIMSASPGEKVTMTCSASSSVSYMHWYQQKPGFSPKLLIYRTSNLASGVPARFSGSGSGTSYSLTIGTMEAEDVATYYCQQGSSIPYTFGGGTKLEIK
notes: VH of AGE78scFv; (Gly-Gly-Gly-Gly-Ser)3 linker; VL of AGE78scFv
Consider B7, for which the binding result in test [1] was “binds”.
